IC50 data for one substance are collected here from patent US20220389120A1.

For the test, the target named is PD-1 (UniProt Q15116). The test is described as follows: PD-1 blocking assay.
Sequence of PD-1 (Q15116 25-167): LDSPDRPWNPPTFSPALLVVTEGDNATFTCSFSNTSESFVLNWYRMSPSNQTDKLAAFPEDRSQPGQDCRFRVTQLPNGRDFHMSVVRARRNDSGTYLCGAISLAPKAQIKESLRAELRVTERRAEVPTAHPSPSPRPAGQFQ

In general, IC50 refers to the point on the concentration scale where inhibition reaches its midpoint. The substance Keytruda displayed an IC50 of 0.282 nM.
